Data on 1 substance can be found in patent US20090203598A1.

This assay addresses ShB-IR (Shaker ShB variant with inactivation removed) (UniProt P08510). As to the kind of experiment: cell-based or functional assay.

Sequence of ShB-IR (Shaker ShB variant with inactivation removed) (P08510 other isoform, or with tags, fused parts or gaps mutant): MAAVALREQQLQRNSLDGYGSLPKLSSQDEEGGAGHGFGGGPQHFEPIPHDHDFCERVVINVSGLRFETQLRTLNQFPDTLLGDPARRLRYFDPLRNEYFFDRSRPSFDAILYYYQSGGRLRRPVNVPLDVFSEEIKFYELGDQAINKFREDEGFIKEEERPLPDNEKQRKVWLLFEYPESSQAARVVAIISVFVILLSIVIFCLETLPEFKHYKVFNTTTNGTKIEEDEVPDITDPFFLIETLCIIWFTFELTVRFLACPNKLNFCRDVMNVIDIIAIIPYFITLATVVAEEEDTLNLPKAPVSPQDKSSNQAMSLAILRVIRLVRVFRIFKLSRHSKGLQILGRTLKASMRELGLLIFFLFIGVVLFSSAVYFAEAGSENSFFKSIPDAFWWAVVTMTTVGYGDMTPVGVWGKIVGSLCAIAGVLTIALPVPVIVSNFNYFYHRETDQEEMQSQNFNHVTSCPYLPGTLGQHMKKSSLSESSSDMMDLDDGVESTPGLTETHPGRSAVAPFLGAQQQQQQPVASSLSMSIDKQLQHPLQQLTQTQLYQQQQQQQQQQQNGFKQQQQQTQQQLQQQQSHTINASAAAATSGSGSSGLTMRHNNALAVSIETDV

For the substance “recombinant charybdotoxin (ChTx) (from UniProt P13487 23-59) (peptide)”, the inhibition of ShB-IR currents by 24 nM recombinant ChTx, two-electrode voltage clamp amounted to 15%.
